pKd: −log10 of the molar value. One block for each substance: values may come before it.
Tests used:
[1] = target: Nucleosome core particle with 207 bp DNA (NCP207) (human) (UniProt P04908); assay: fluorescence polarisation
[2] = target: PZP domain of JADE1 (JADE1PZP), wild type (human) (UniProt Q6IE81); assay: other fluorescence titration
[3] = target: Nucleosome core particle with 147 bp 601 DNA (NCP147) (human) (UniProt P04908); assay: fluorescence polarisation

PZP domain of JADE1 (JADE1PZP), wild type (human), sequence (Q6IE81 201-373): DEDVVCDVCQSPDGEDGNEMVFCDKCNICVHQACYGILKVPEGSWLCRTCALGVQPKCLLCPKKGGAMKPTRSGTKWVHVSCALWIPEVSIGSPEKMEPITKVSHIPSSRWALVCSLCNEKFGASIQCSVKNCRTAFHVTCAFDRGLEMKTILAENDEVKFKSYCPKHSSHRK
PZP domain of JADE1 (JADE1PZP), wild type, sequence (Q6IE81 201-373): as above

fold decrease in binding against wild type JADE1PZP [1]: 55 fold
Substance: K331A/R334A/K367A (KRK) mutant of JADE1PZP (from UniProt Q6IE81 201-373) (domain or fragment)

Kd of the first site (two-site binding model) [2]: 0.3 µM
Kd of the second site (two-site binding model) [2]: 25 µM
Substance: H3_(1–31) peptide (residues 1–31 of H3) (from UniProt P68431 2-32)

S1/2 [3]: 2.8 µM
S1/2 [1]: 0.5 µM
Substance: PZP domain of JADE1 (JADE1PZP), wild type (from UniProt Q6IE81 201-373) (domain or fragment)

pKd [2]: 4.20
Substance: H3_(15–34) peptide (residues 15–34 of H3) (from UniProt P68431 16-35)
